According to the RNAGym collection of RNA variant scans (doi:10.7554/elife.80360):

B1: Hairpin Ribozyme (parent)
chain: GUCCUCUUUCACGUGCGCGUGAAAGAGAGAAGUGAACCAGAGAAACACACGUUGUGGUAUAUUACCUGGUA

Variants of: B1
Test: self-cleavage, relative activity (ratio to wild type); higher = more cleavage; co-transcriptional

Variant	self-cleavage
A28C G68C	0.309
A28G A30C	0.0631
A28G A30G	0.218
A26U U33G	0.107
G27U C50A	0.155
G27A U53A	0.371
A26G U58C	1.02
A28G C50G	0.467
A28G C50U	0.439
A26G A39G	0.379
A26G G68U	0.131
G27U C38U	0.157
G27A G56A	0.116
A26U C65G	0.111
A28G G29U	0.0365
A26U G69C	0.247
A28G A35C	1.27
A28G A35G	0.864
A26G A47C	0.251
A26G A47U	0.152
G27C G42U	0.172
A26U A49C	0.157
G27C C46U	0.106
G27C G29C	0.163

Variant	self-cleavage
G27C A43U	0.151
A26G G34U	1.37
A26G G34A	1.19
G27C U58A	0.123
G27C U58G	0.188
A26U A45C	0.223
G27U C48A	0.0902
G27U U60C	0.383
A28C G57A	0.119
G27U G56A	0.0845
G27U G56U	0.108
A26C U70A	0.63
G27U G68C	0.102
G27U G68U	0.157
G27C A59C	0.104
G27C A59G	0.0478
G27U A28C	0.179
G27A A71U	0.28
G27C A47U	0.0683
G27A G29C	0.12
A26G G56A	0.271
G27A A45U	0.201
A26U A28G	1
A26G A45U	0.148

Variant	self-cleavage
A28G A36G	1.16
A26C G32C	0.175
A26C G32A	0.0538
A28C G51A	0.517
A28C G51C	0.336
G27C U67A	0.104
A28C G32C	0.121
A28C G32U	0.0817
A28G A64C	0.165
A28G A64U	0.159
A26C G51U	0.919
A26C G51C	0.714
A26U U70G	0.397
A26U U70A	0.575
G27C C65G	0.152
A26U G42C	0.139
A26U G42U	0.173
A26C U53G	0.883
G27C G32A	0.191
G27C G32C	0.13
A28C U67A	0.135
A28C U67G	0.184
G27A U55C	0.211
G27A U55G	0.144

Variant	self-cleavage
A26G A61U	0.281
A26G C50U	0.347
A26U G29A	0.198
A28G C46A	0.199
G27U C37A	0.108
A26C G40C	0.11
A26C G40U	0.114
A26G C48U	0.18
A26G C48G	0.14
A28C C48G	0.128
A26U G68A	0.23
G27A A41C	0.602
G27A A41G	0.261
G27A A41U	0.744
G27U A44U	0.169
A28C A47G	0.0559
A28C A47C	0.0848
A26C G57C	0.0672
A28G A59C	0.114
A28G A59G	0.181
G27C C66G	0.156
G27U G29U	0.119
G27U G29C	0.101
G27U G29A	0.225

Variant	self-cleavage
G27C C48A	0.0978
G27C C48G	0.164
A26C G54C	0.243
G27U C46G	0.0944
G27U C46A	0.13
A26C U63A	0.175
A26G A43G	0.114
A26G A43C	0.11
A28C C46U	0.151
A28C C46G	0.0967
A28C C46A	0.191
A26U U67G	0.2
A28C C37U	0.396
A28C A41U	1.12
A26U G56A	0.129
A26U G56U	0.279
A28G A49U	0.118
A28G A49G	0.637
G27A U52A	0.337
A28C C38G	0.194
A28C C38U	0.218
G27A C50A	0.104
G27A A35G	0.449
G27A A35U	0.261

Variant	self-cleavage
A26U G32C	0.128
A26U G32A	0.154
G27U A59G	0.209
G27U A59C	0.0836
A26C C38U	0.416
A26C U52C	0.811
G27U A71C	0.904
A26U C48U	0.0687
A26G A71U	0.823
A26G A71G	0.935
A28G A61C	0.434
A28G A61U	0.182
A28G C66U	0.654
A28G C66G	0.0858
A26G G69C	0.403
A26G G69U	0.204
G27C A28C	0.164
G27C A28G	0.128
G27C A28U	0.138
A28C G29U	0.0915
A28C G29C	0.204
A26U U55A	0.082
A28C A31G	0.333
A28C A31U	0.107

Variant	self-cleavage
A28G C48A	0.143
A28G C48G	0.0684
A26C U55C	0.211
A26U A43C	0.098
G27C U63G	0.101
G27U U53C	0.398
G27U U53A	0.111
G27C A44C	0.0898
A26G G29U	0.0885
G27U C65A	0.184
A26C G34A	0.906
G27A C66U	0.13
G27A U58C	0.516
A26C G42C	0.357
G27U A43G	0.169
G27U A43C	0.0898
A26G A35C	0.799
A26G A35U	0.523
A26G A35G	0.763
G27U G32A	0.104
G27U G32U	0.211
A26U A59U	0.108
G27A G69A	0.155
G27U A49C	0.225

Variant	self-cleavage
A26C G27U	0.0629
A26C G27C	0.197
G27C A31G	0.124
G27C A31C	0.131
G27A A44G	0.0958
G27A G42A	0.153
G27A G40U	0.179
A28C A45G	0.201
A28C A45U	0.134
A26C C50G	0.174
A26U A31C	0.171
G27A A64C	0.189
G27U A47G	0.222
G27U A47C	0.157
G27C U60G	0.0405
A26G G42C	0.357
A26G G42U	0.371
A26G G42A	0.245
A26G A31G	0.884
G27U U70A	0.172
G27U G51A	0.307
A28C G56C	0.101
A26U C46U	0.11
A28C A61U	0.272

Variant	self-cleavage
A26C G69C	0.212
A26C G69U	0.108
A26C G56C	0.0943
A26C G56A	0.163
A28G A71U	0.771
G27A A47U	0.111
A26G A30C	0.0939
A26G A30G	0.0496
A26C U33C	0.143
A26C U33A	0.23
G27A A61C	0.107
G27C U70G	0.122
A28G G32C	0.119
G27A C37A	0.219
G27A C37U	0.32
A28G A31U	0.0204
A28G A31G	0.416
A26G U60C	0.963
A26G U60A	0.763
A26C U62G	0.0946
A28G A44G	0.222
G27A C38G	0.0969
G27U G34A	0.282
G27U G34U	1.15

Variant	self-cleavage
G27C C37U	0.0764
G27C C37G	0.239
G27U A30G	0.0852
G27U U63G	0.243
G27U U63A	0.0592
G27A U63A	0.103
G27A U63C	0.236
G27A U63G	0.134
A26U A30C	0.205
G27C U62G	0.161
G27C U62C	0.12
A28C U60A	0.448
G27U A41C	0.423
A26U U52C	0.656
G27U G57C	0.159
A28C	0.497
A28G	1.12
A28G A43U	0.123
A28G A43G	0.158
G27C A39U	0.0549
A26C U67G	0.196
A26C C48G	0.138
A28C G34C	1.5
A28C U55G	0.217

Variant	self-cleavage
A28C U55C	0.216
G27A A30U	0.0812
A28C C66G	0.197
A28C C66U	0.227
A26G G40A	0.302
A26G G40C	0.167
G27U U62A	0.137
G27C G68U	0.147
A26G G57A	0.196
A26G G57C	0.103
G27A A36U	0.198
A28G A45G	0.242
A28C U63G	0.176
A28C U63C	0.251
G27U A31G	0.164
A26U A47C	0.151
G27A G51C	0.238
A26G U53C	0.565
A26G U53A	0.814
G27U A61C	0.149
A26U U62A	0.214
A26U U62C	0.192
A26U G54A	0.318
G27C G51C	0.135

Variant	self-cleavage
G27C G51U	0.17
G27A A59C	0.103
G27A A59G	0.191
G27A A59U	0.185
A26U A61G	0.187
A26U A61C	0.226
G27C G69U	0.162
G27U U52A	0.354
G27A U70C	0.391
G27A U70A	0.426
G27C C50A	0.242
G27C A30U	0.255
A26U G34U	1.37
A26U U60C	0.898
A26U U60G	0.437
G27A A43C	0.0674
A28C A59G	0.117
A28C A59U	0.14
G27A G57A	0.145
A26G C65U	0.311
A26G C65G	0.23
A28C U52A	0.492
G27C A45C	0.11
A26U A36G	0.723

Variant	self-cleavage
A26U C50A	0.209
A26U C50G	0.148
G27C A35U	0.0854
A26C C46A	0.175
G27A C46G	0.138
G27A C46A	0.103
A26U G27U	0.0812
A28C U53A	0.39
A28C U53G	0.213
A28C A39C	0.238
A28C A39U	0.127
A26G U62A	0.228
A26G U62G	0.0228
A26G U62C	0.277
A28C A43C	0.125
A28C A43U	0.148
G27U G42A	0.149
G27U G42C	0.0625
A26U U58C	0.657
A28C G42C	0.109
A28C G42A	0.29
G27A U33A	0.0964
A26U A64U	0.175
A26U A71U	0.433

Variant	self-cleavage
A26C G68A	0.117
A26U U63G	0.158
A26G A44U	0.103
G27C A64C	0.128
G27C A64U	0.184
A26G C37U	0.602
A26G C37G	0.237
A26G G54C	0.457
G27C A61C	0.0843
G27C A61G	0.237
A26G G32U	0.121
A26G G32C	0.144
A26G A36G	0.769
A26G U67G	0.281
A26U U53C	0.599
G27U U33G	0.145
G27U U58A	0.153
G27U U58G	0.225
G27C A49C	0.203
G27C A49G	0.075
G27U G40U	0.0783
G27U G40C	0.0532
